# Results: the nanobody polyreactivity screen of Harvey et al. (2022)
# Assay: yeast display, Sf9 membrane polyspecificity reagent, FACS + sequencing; frameworks hold sequencing errors
# Method in brief: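 A synthetic nanobody library was expressed on Saccharomyces cerevisiae BJ5465 by galactose induction for 36–48 hours. The library was stained for 1 hour at 4 °C with 10% biotinylated, detergent-solubilized Sf9 membrane reagent and enriched with streptavidin microbeads before FACS. Low and high (top ~1%) gates were set on anti-HA fluorescence for expression and streptavidin fluorescence for reagent binding, and each polyreactivity label reflects the gate of origin.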
row,Sequence,polyreactivity (PSR sort gate)
1,QVQLVEAGGGLVQAGGSLRLSGAASGFTLYANAMGWYRQAPGKERELVADISVSGSSTAYADSVKGRFTISRDNAKNTVYLQMNSLKPEDTAVYYCNADQGTRDSDYWGQGTQVTVSS,low polyreactivity
2,QVQLVESGGGLVQAGGSLRLSCAASGRTFSSNTMGWYRQAPGKERELVAAIDWSGGRTYYADSVKGRFTISRDNAKNTVYLQLNSLKPEDTEVYYCARSRSYWGIVYGRYDYWGQGTQVTVSS,high polyreactivity
3,QVQLVESGGGLVQAGGSLRLSCAASGRNFTRNAMGWYRQAPGKEREFVAAISWSGGSTYYADSVKGRFTLSRDNAKNTVYVQMNSLKPEDTAVYYCAAKNCGGYVSWYDYWGQGTQVTVSS,low polyreactivity
4,QDQLVESGGALGQAGGSLRLSCAASGSIFFYYAMGCYRQAPGKEREFVAHITSSEASTHYADSVKGRFTISRDTAKNTVYLQMNSLIPEDTAVYYCAADRYPGHRERDFWGQGSQVTVSS,low polyreactivity
5,QVQLVESGGGLVQAGGSLRLSCAASGFIFSYYAMGGYRQAPGKERELVAAITSGGSTNYADSVKGRLTISRDNAKNTFYLQMNSLKPEDTAVYYCAAERGDTAYLKYDYCGQGTQVTVSS,low polyreactivity
6,QVQLVESGGGLVQAGGRLRLSCAASVNTFGANAMGWYRQAPGKESELVADITQSGGSTYYADSVKGRFTISRDNAKNTVYLQMNSLKPEDTALYYCNIVTRYYTPFEEYDYWGQGTQVTVSS,low polyreactivity
7,PVQLVESGGGLVQAGGTLRLSCDATGITFKLNAMGWYRQAPGKERELVAAITSTGGSTYYADSVKGRFTISRDNAKNTVYLQMNSLNPEDTAVYYCAADRYSYIFYYYWSYDYWGQCTQVTVSS,high polyreactivity
8,QVQLVESGGGLVQAGGSLRLSCAASGFIFAKYVMGWYRQAPGKERELVAAISRSGGSTYYADSVKGRFTISRDNAKNTVYLQLNSLKPEDTAVYYCAADQTTTGGMDYWGQGTQITVSS,high polyreactivity
9,QVQLQESGGGLVQVGGSQRLSCAASGNNFYNYAMGWYRHAQGKEREFDATINHGTSINYADSVKGRFTISRDNAKNTVYLQMNSLKPEDTAVYYCAADLSWTDNLFYWGQGTQVTVSS,low polyreactivity
10,QVQLVESGVGLVQAGGSLRLSCAASGGTFGYYVMGWYRQATGKESELVAAITSGGSTKYADSVKGRFTISRDNAKNTVYLQMNSLNPEDTAVYYCAADVTRREPYQSYDFWGQGTQVTVSS,low polyreactivity
11,QVQLVESGGGLVQAGGSLRLSCAASGRIFQGYAMGWYRQAPGKERELVAAITLSGGSTYYADSVKGRFTISRDHAKNTVYLQMNSLKPEDTAVYYCNAYYPDEPSLYDYWGQVTQVTVSS,low polyreactivity
12,QVQLVESGGGLVQAGGSLRLSCAASGRIFSVYAMGWYRQAPGKEREFVASISWRGGRTYYADSVKGRFTISRDNAKNTFYLQMNSLKPEDTAVYYCAAVSYPAVYGFDYWGQGTQVTVSS,high polyreactivity
13,QVQLVESGGGLVQAGGSLRLSCAASGSTFYNYVMGWYRQAPGKERELVAVINRSGTRTYYADSVKGRLTISRDNAKITVYLQMNSLKPEDTAVYYCNAELSYPGRYDSWGQGTQVTVSS,high polyreactivity
14,QVQLVESGGGLVQAGGSLRLSCAASGRTFFWNDMGWYRPAPGKERELVAAITWSGGSTYYADSVKGRFTISRDNAKNTVYLQMNSLKPEDTAVYYCDAVVSDYVWRYEYWGQGTQVTVSS,low polyreactivity
15,QVQLVESGGGLVQAGGSLRLSCAASGRIFGVNARGWYRQAPGKERELVATITRGGNTNYADSVKGRFTISRDNAKNTVYLQMNSLKPEDTAVYYCNADRYRTFSRLPYGEYEYWGQGTQVTVSS,low polyreactivity
16,QVQLVESGGGLVQAGGSLRLSCAASGFILYGNTMGWYRQAPGKERELVAAISWSGGNTRYADSVKARFTISRDNAKNTVYLQMNSLQPEDTAVYYCAAYSNYVWSIRRDYWGQGTQVTVSS,low polyreactivity

row,Sequence,polyreactivity (PSR sort gate)
1,QVQLVESGGGLVQAGGSLRLSCAASGSTFEYYAMGWDRQAPGKERELVAGISTGGSSNYADSVKGRFTISRDNAKNTVYLQMNSLKPEDTAVYYCNRDWALYVFGSHYHAYYSWGQGTQVTVSS,low polyreactivity
2,QVQLVESGGGLVQAGGSLRLSCAASGSTFDHYAMGWYRQAPGKERELVASITLSGGSTYYADSVKGRFTISRDNAKNTVYLQMNSLKPEDTAVYYCNVDYPFYQYGYYYNYNYWGQGTQVTVSS,low polyreactivity
3,QVQLVESGVGLVQAGGSVRLSCAASGRTFYRYAMGWYRQAPGKERELVAAISSGGSTYYADSVKGRFTISRDNAKNTVYLQMNSLKPEDTAVYYCNADYGRRNHMDYWGQGTQVTVSS,low polyreactivity
4,QVQLVESGGGLVQAGGSLRLSCAASGRTFVPYAMGWYRQAPWKERELVASISSSGGSTYYADSVKGRFTISRDNAKNTVYLQMNSLKPEDTAVYYCATADRWSSSYYRSVRWYHYDYWGQGTQVTVSS,low polyreactivity
5,QVQLVESGGGLVQAGGSLRLSCAASGSIFAYAMGWYRQAPGKERELVAGISSSGGRTYYADSVKGRFTISRDNAKNTVYLQMNRLKPEDTAVYYCAAKRWGLYKGYNCGQGTQVTVSS,high polyreactivity
6,QVQLVESGGGLVQAGGSLRLSCAASGFIFELYAMGWYRQAPGKERDLVAVISYDGGSTYYADSVKGRFTISRDNAKNTVYLQMNSLKPEDTAVYYCNTYAGLVSPSDLYDYWGQGTQVTVSS,low polyreactivity
7,QVQLVESGGGLVQAGGSLRLSCAASGSTFHYYAMGWYRQAPGKERELVAAISKRGTSTYYADSVKGRFTISRDNAKNTVYLQMNSLKPEDTSVYYCNRYPIRYKHRGLDYWGHGTQVTVSS,high polyreactivity
8,QVQLVESGGGLVQAGGSLRLSCAASGSIFYTNAMGWYRQAPGKERELVAAITWSGGRTYYADSVKGRFTISRDIAKNTVYLQMNSLKPEDTAVYYCNREGWHYGPYGYWGQGTQVTVSS,low polyreactivity
9,QVQLVESGGGLVQAGGSLRLSCAASGRTLNRYAMGWYRQAPGKERELVAAIRWRGASTYYADSVKGRFTISRDNAKNTVYLQMNSLKPEDTAVYYCAKRFFASTPNFDYWGQGTQVTVSS,high polyreactivity
10,QVQLVESGGGLVQAGGSLRLSCAASGSTFAFNAMGWYRQAPGKEREFVARITWSDGSTYYADSVKGRFTISRDNAKNSVYLQMNSLKPEDTAVYYCARDPTEQAIARWTYDYWGQGTQVTVSS,low polyreactivity
11,QVQLVESGGGLVQAGGSLRLSCAASGRTFFINTMGWYRQAPGKEREFVAAITWSAGRTYYADSVKGRFTISRDNAKNTVYLQMNSLKPEDTAVYYCAAALHGHTFPFYYWGQGTQVTVSS,low polyreactivity
12,QVQLVESGGGLVQAGGSLRLICAASGSTFPYYDMGWYRQAPGKETELVAAISWSGDSTYYADSVKGRFTISRDNAKNTVYLQMNSLKPEDTAVYYCAAYSDYWSYLSTDDYWGQGTQVTVSS,low polyreactivity
13,QVQLVESGGGLVQAGGSLRLSCAASGRIFYTYAMGWYRQAPGKASELVAAITYRGGSTYYADSVKGRFTISRDIAKNTVYLQMNSLKPADTAVYYCAARPGRGPDSRWRYKYDYWGQGTQVTVSS,high polyreactivity
14,QVQLVESGGGLVQAGGSLRLSCAASGSTFYKYAMGWYRQATGKERELVASTYADSVKGRFTISRDNAKNTVYLQMNSLKPEDTAVYYCAKDTASGPYDYWGQGTQVTVSS,low polyreactivity
15,QVQLVESGRGLVQAGGSLRLSCAPSGFTFNVNAMGWYRQAPGKERELVAAISSSGTRTYYADSVKGRFTISRDNAKNTFYLQMNSLKPEDTAVYYCGASGQAYSGDRMYYWGQGTQVTVSS,high polyreactivity
16,HVQLVESGGGLVQAGGSLRLSCAASGRTFYIYAMGWYRKAPGKERELVAAITWSGGTTYYADSVKGRFTISRDNAKNPVYLQMTSLKPEDTAVYYCAADSYGFYLESYYWGQGTQVTVSS,low polyreactivity
